Tests used:
CoV2_5P_FPKO1 = biological target: T1, CoV2_5P_FPKO1 (SARS-CoV-2, UniProt P0DTC2 14-1208); assay: ELISA
T1 construct: also called 5P KO1

CoV2_5P_NonSFP = biological target: T2, CoV2_5P_NonSFP (SARS-CoV-2, UniProt P0DTC2 14-1208); assay: ELISA, AUC, on 5P spikes with swapped fusion peptides
T2 construct: also called scrambled fusion peptide spike

[1] = biological target: T3, CoV2_5P prefusion-stabilized spike protein (SARS-CoV-2, UniProt P0DTC2 14-1208); assay: ELISA, AUC ratio to wildtype C2691
T3 construct: also called 5P trimer; wildtype 5P

| Binder | binding result (CoV2_5P_FPKO1) | binding result (CoV2_5P_NonSFP) | binding result [1] |
| --- | --- | --- | --- |
| C2691 (antibody, V domains shown, also called lineage HV1-67/KV6-15 antibody C2691) VH: QVQLQQSGPELVRPGESVKISCKGSGYTFTDYAMHWVKQSHAKSLEWIGIISFYYDNTKYNQNFKGKATMTVDKSSSTAYMELARLTSEDSAIYFCASQGIHYYGSFAYWGQGTLVTVSA VL: DIVMTQSQKFMSTSVGDRVSVSCKASQNVGTNLGWYQQKPGQSPKALIYSASYRYSGVPDRFTGSGSGTDFTLTISNVQSEDLAEYFCQQYNSSPLTFGAGTKLELK | binds | – | – |
| Q107A (antibody, V domains shown, member of the group m29; also called C2691 Q107A; C2691 CDR3 alanine scanning mutant) VH: QVQLQQSGPELVRPGESVKISCKGSGYTFTDYAMHWVKQSHAKSLEWIGIISFYYDNTKYNQNFKGKATMTVDKSSSTAYMELARLTSEDSAIYFCASAGIHYYGSFAYWGQGTLVTVSA VL: DIVMTQSQKFMSTSVGDRVSVSCKASQNVGTNLGWYQQKPGQSPKALIYSASYRYSGVPDRFTGSGSGTDFTLTISNVQSEDLAEYFCQQYNSSPLTFGAGTKLELK | – | no binding | – |
| Y112A (antibody, V domains shown, member of the group m29; also called C2691 Y112A; C2691 CDR3 alanine scanning mutant) VH: QVQLQQSGPELVRPGESVKISCKGSGYTFTDYAMHWVKQSHAKSLEWIGIISFYYDNTKYNQNFKGKATMTVDKSSSTAYMELARLTSEDSAIYFCASQGIHYAGSFAYWGQGTLVTVSA VL: DIVMTQSQKFMSTSVGDRVSVSCKASQNVGTNLGWYQQKPGQSPKALIYSASYRYSGVPDRFTGSGSGTDFTLTISNVQSEDLAEYFCQQYNSSPLTFGAGTKLELK | – | no binding | binds |
| Y111A (antibody, V domains shown, member of the group m29; also called C2691 Y111A; C2691 CDR3 alanine scanning mutant) VH: QVQLQQSGPELVRPGESVKISCKGSGYTFTDYAMHWVKQSHAKSLEWIGIISFYYDNTKYNQNFKGKATMTVDKSSSTAYMELARLTSEDSAIYFCASQGIHAYGSFAYWGQGTLVTVSA VL: DIVMTQSQKFMSTSVGDRVSVSCKASQNVGTNLGWYQQKPGQSPKALIYSASYRYSGVPDRFTGSGSGTDFTLTISNVQSEDLAEYFCQQYNSSPLTFGAGTKLELK | – | no binding | – |
| I109A (antibody, V domains shown, member of the group m29; also called C2691 I109A; C2691 CDR3 alanine scanning mutant) VH: QVQLQQSGPELVRPGESVKISCKGSGYTFTDYAMHWVKQSHAKSLEWIGIISFYYDNTKYNQNFKGKATMTVDKSSSTAYMELARLTSEDSAIYFCASQGAHYYGSFAYWGQGTLVTVSA VL: DIVMTQSQKFMSTSVGDRVSVSCKASQNVGTNLGWYQQKPGQSPKALIYSASYRYSGVPDRFTGSGSGTDFTLTISNVQSEDLAEYFCQQYNSSPLTFGAGTKLELK | – | no binding | binds |
| H110A (antibody, V domains shown, member of the group m29; also called C2691 H110A; C2691 CDR3 alanine scanning mutant) VH: QVQLQQSGPELVRPGESVKISCKGSGYTFTDYAMHWVKQSHAKSLEWIGIISFYYDNTKYNQNFKGKATMTVDKSSSTAYMELARLTSEDSAIYFCASQGIAYYGSFAYWGQGTLVTVSA VL: DIVMTQSQKFMSTSVGDRVSVSCKASQNVGTNLGWYQQKPGQSPKALIYSASYRYSGVPDRFTGSGSGTDFTLTISNVQSEDLAEYFCQQYNSSPLTFGAGTKLELK | – | no binding | binds |

From patent US20250134988A1 (WISTAR INSTITUTE OF ANATOMY AND BIOLOGY, published 2025)
